Measurements reported in patent US20190185564A1 (AGENCY FOR SCIENCE TECHNOLOGY AND RESEARCH, published 2019).
Like-named read-outs stand apart in the source and are kept apart here.

What was measured:
[1] = biological target: T1, Mouse Tim-3-Fc (mouse, UniProt Q8VIM0); assay: ELISA on coated mouse TIM-3-Fc, absorbance 450-670 nm
T1 construct: coupled to human Fc; ELISA coating antigen for the cross-reactivity test; also called mouse TIM-3 coupled to human Fc
Protocol: (§1) After a small-scale induction in HB2151 cells, Fab antibodies were screened by ELISA. […] After extensive washes in PBS Tween-20, Fab-containing supernatants from induction plates were transferred into the ELISA plates in the presence of 7% milk in PBS. After 90 minutes at room temperature under agitation and extensive washes, a goat anti-human Fab antibody coupled to HRP was added. One hour later, plates were washed and TMB substrate added. The reaction was stopped with 1M HCl and optical density measured at 450 nm with a reference at 670 nm. Antibodies giving an absorbance >0.1 were selected as positive.

[2] = biological target: T1, Mouse Tim-3-Fc; assay: as above; remark: listed apart in the source
Protocol: as §1

Row | Binder | binding result [1] | binding result [2]
1 | anti-TIM-3 antibody clone A3 (antibody, V domains shown, Isolated from a human phage library and screened as Fab; SPR was recorded for 'each candidate Fab') VH: QVQLVQSGAEVKKPGASVKVSCKASGYTFTSYYMHWVRQAPGQGLEWMGIINPSGGSTSYAQKFQGRVTMTRDTSTSTVYMELSSLRSEDTAVYYCARSPGVVTALFDYWGQGTLVTVSS VL: DIQMTQSPSFMSASVGDRVTITCRASQDIGSYLAWYQQKPGKAPKLLIYAASTLQSGVPSRFSGSGSGTDFTLTINSLQPEDFATYYCQQSYSSPPTFGPGTTLEIK | no binding | 
2 | anti-TIM-3 antibody clone A11 (antibody, V domains shown, Screened as Fab, and SPR was recorded for 'each candidate Fab') VH: QVQLQQWGAGLLKPSETLSLTCAVYGGSFSGYYWSWIRQPPGKGLEWIGEINHSGSTNYNPSLKSRVTISVDTSKNQFSLKLSSVTAADTAVYYCARGYVAGFDYWGQGTLVTVSS VL: QSVVTQPPSVSAAPGQKVTISCSGSSSNIGNNYVSWYQQLPGTAPKLLIYGNNWRPSGIPDRFSGSKSGTSATLAISGLQTGDEADYYCETWDSSLSAGVFGGGTKLTVL |  | no binding
3 | anti-TIM-3 antibody clone B10 (antibody, V domains shown, Screened as Fab, and SPR was recorded for 'each candidate Fab') VH: QVQLQESGPGLVKASETLSLTCTVSGGSIGSSDYYWGWIRQPPGKGLEWIGSIYYSGSTYYNPSLKSRVTMSVDTPNNQFSLKLSSVTAADTAVYYCARGEHRGEFDYWGQGTLVTVSS VL: EIVLTQSPATLSFSPGERATLSCRASQSVGSYLAWYQQRPGQAPRPLIYDATNRATGIPTRFSGSGSGTDFTLTISSLEPEDFATYYCQHRRTFGRGTKLEIK | no binding | 
4 | anti-TIM-3 antibody clone G6 (antibody, V domains shown, Screened as Fab, and SPR was recorded for 'each candidate Fab') VH: QVQLQESGPGLVKPSGTLSLTCAVSGGSISSSNWWSWVRQPPGKGLEWIGEIYHSGSTNYNPSLKSRVTISVDKSKNQFSLKLSSVTAADTAVYYCARVVAVAGTVDYWGQGTLVTVSS VL: not shown | no binding | 
5 | anti-TIM-3 antibody clone G7 (antibody, V domains shown, Screened as Fab, and SPR was recorded for 'each candidate Fab') VH: EVQLVQSGAEVKKPGASVKVSCKASGYTFTSYYMHWVRQAPGQGLEWMGIINPSGGSTSYAQKFQGRVTMTRDTSTSTVYMELSSLRSEDTAVYYCARDQYSSGWYYYGMDVWGQGTTVTVSS VL: not shown | no binding | 
6 | anti-TIM-3 antibody clone G9 (antibody, V domains shown, Screened as Fab, and SPR was recorded for 'each candidate Fab') VH: QVQLQQSGAEVKKPGASVKVSCKASGYTFTSYYMHWVRQAPGQGLEWMGIINPSGGSTSYAQKFQGRVTMTRDTSTSTVYMELSSLRSEDTAVYYCARDLYSYGFYYYGMDVWGQGTTVTVSS VL: not shown | no binding | 
